Reference: article PMC11484861 (Nature Communications, 2024)
pKd: −log10 of the molar value.

Molecular target: GFP-PDPK1 (human (cloned from HEK293T cells)) (UniProt O15530)
Assay: MST

Sequence of GFP-PDPK1 (human (cloned from HEK293T cells)) (O15530 whole entry): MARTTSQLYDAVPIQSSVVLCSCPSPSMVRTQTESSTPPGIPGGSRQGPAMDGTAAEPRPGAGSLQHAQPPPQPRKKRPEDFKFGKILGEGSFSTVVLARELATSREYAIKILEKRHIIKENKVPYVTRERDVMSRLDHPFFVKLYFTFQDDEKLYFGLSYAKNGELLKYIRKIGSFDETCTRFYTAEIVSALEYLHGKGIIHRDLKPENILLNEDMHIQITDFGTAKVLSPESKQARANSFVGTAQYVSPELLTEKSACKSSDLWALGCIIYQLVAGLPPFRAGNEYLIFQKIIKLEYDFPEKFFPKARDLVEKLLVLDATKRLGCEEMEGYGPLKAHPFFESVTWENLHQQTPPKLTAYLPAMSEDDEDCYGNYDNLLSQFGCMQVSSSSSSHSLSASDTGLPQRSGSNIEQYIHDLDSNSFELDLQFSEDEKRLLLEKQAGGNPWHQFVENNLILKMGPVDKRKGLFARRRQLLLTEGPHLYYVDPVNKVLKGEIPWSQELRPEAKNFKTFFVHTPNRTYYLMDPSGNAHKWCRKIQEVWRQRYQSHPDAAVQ

unlabeled MΔβ3-5 (MST ligand) (from UniProt P0DTC5 1-222) (domain or fragment)
pKd: 4.42
